In PMC8516079:

Biological target: TGF-β receptors on MFB-F11 cells
Conditions: scale: fold less potent than HEK293T-expressed TGM1

Substance: algal-expressed TGM1 (Heligmosomoides polygyrus TGF-β mimic, mature 5-domain, FLAG-tagged) (ligand)
- MFB-F11 Smad-responsive reporter cells, secreted alkaline phosphatase (405 nm), log dilutions starting at 100 ng/mL, 24 h; potency against HEK293T-expressed TGM1: 10
